From patent US20210388110A1 (published 2021)

Target: T1, soluble human CD3ε chain (human, UniProt P07766 23-126, limits assumed)
T1 construct: the text says soluble human CD3ε chain; also called human CD3 epsilon chain
Assay: SPR (Biacore)

T1 sequence (P07766 23-126 limits assumed): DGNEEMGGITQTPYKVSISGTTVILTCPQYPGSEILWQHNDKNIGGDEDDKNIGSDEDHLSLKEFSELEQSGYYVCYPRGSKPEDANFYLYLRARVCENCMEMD

Binder | Kd
TR01H040-E22Hh/none-Hi-Kn010G3/L0011-k0 (antibody, human IgG1, kappa, L234A L235A, N297A, single-arm) heavy: QVQLVESGGGLVQPGRSLRLSCAASGFTFSNAWMHWVRQAPGKGLEWVAQIKDKSQNYATYYAESVKGRFTISRADSKNSIYLQMNSLKTEDTAVYYCRYVHYSASYGVDAWGQGTTVTVSSASTKGPSVFPLAPSSKSTSGGTAALGCLVKDYFPEPVTVSWNSGALTSGVHTFPAVLQSSGLYSLSSVVTVPSSSLGTQTYICNVNHKPSNTKVDKKVEPKSCDKTHTCPPCPAPEAAGGPSVFLFPPKPKDTLMISRTPEVTCVVVDVSHEDPEVKFNWYVDGVEVHNAKTKPREEQYASTYRVVSVLTVLHQDWLNGKEYKCKVSNKALPAPIEKTISKAKGQPREPQVYTLPPSRCELTKNQVSLSCAVKGFYPSDIAVEWESNGQPENNYKTTPPVLDSDGSFFLVSKLTVDKSRWQQGNVFSCSVMHEALHNHYTQKSLSLSPDYKDDDDK EPKSSDKTHTCPPCPAPELLGGPSVFLFPPKPKDTLMISRTPEVTCVVVDVSHEDPEVKFNWYVDGVEVHNAKTKPREEQYNSTYRVVSVLTVLHQDWLNGKEYKCKVSNKALPAPIEKTISKAKGQPREPQVCTLPPSRDELTKNQVSLWCLVKGFYPSDIAVEWESNGQPENNYKTTPPVLDSDGSFFLYSKLTVDKSRWQQGNVFSCSVMHEALHNRYTQKSLSLSP light: DIVMTQSPLSLPVTPGEPASISCRSSQPLVHSNRNTYLHWYQQKPGQAPRLLIYKVSNRFSGVPDRFSGSGSGTDFTLKISRVEAEDVGVYYCGQGTQVPYTFGQGTKLEIKRTVAAPSVFIFPPSDEQLKSGTASVVCLLNNFYPREAKVQWKVDNALQSGNSQESVTEQDSKDSTYSLSSTLTLSKADYEKHKVYACEVTHQGLSSPVTKSFNRGEC | 34.8 nM
TR01H040-E22Hh/none-Hi-Kn010G3/L0202-k0 (antibody, human IgG1, kappa, L234A L235A, N297A, single-arm) heavy: QVQLVESGGGLVQPGRSLRLSCAASGFTFSNAWMHWVRQAPGKGLEWVAQIKDKSQNYATYYAESVKGRFTISRADSKNSIYLQMNSLKTEDTAVYYCRYVHYSASYGVDAWGQGTTVTVSSASTKGPSVFPLAPSSKSTSGGTAALGCLVKDYFPEPVTVSWNSGALTSGVHTFPAVLQSSGLYSLSSVVTVPSSSLGTQTYICNVNHKPSNTKVDKKVEPKSCDKTHTCPPCPAPEAAGGPSVFLFPPKPKDTLMISRTPEVTCVVVDVSHEDPEVKFNWYVDGVEVHNAKTKPREEQYASTYRVVSVLTVLHQDWLNGKEYKCKVSNKALPAPIEKTISKAKGQPREPQVYTLPPSRCELTKNQVSLSCAVKGFYPSDIAVEWESNGQPENNYKTTPPVLDSDGSFFLVSKLTVDKSRWQQGNVFSCSVMHEALHNHYTQKSLSLSPDYKDDDDK EPKSSDKTHTCPPCPAPELLGGPSVFLFPPKPKDTLMISRTPEVTCVVVDVSHEDPEVKFNWYVDGVEVHNAKTKPREEQYNSTYRVVSVLTVLHQDWLNGKEYKCKVSNKALPAPIEKTISKAKGQPREPQVCTLPPSRDELTKNQVSLWCLVKGFYPSDIAVEWESNGQPENNYKTTPPVLDSDGSFFLYSKLTVDKSRWQQGNVFSCSVMHEALHNRYTQKSLSLSP light: DIVMTQSPLSLPVTPGEPASISCRSSQSPVHSNRWTYLHWYQQKPGQAPRLLIYKVSNRFSGVPDRFSGSGSGTDFTLKISRVEAEDVGVYYCGQGTQVPYTFGQGTKLEIKRTVAAPSVFIFPPSDEQLKSGTASVVCLLNNFYPREAKVQWKVDNALQSGNSQESVTEQDSKDSTYSLSSTLTLSKADYEKHKVYACEVTHQGLSSPVTKSFNRGEC | 61.9 nM
TR01H040-E22Hh/none-Hi-Kn010G3/L0203-k0 (antibody, human IgG1, kappa, L234A L235A, N297A, single-arm) heavy: QVQLVESGGGLVQPGRSLRLSCAASGFTFSNAWMHWVRQAPGKGLEWVAQIKDKSQNYATYYAESVKGRFTISRADSKNSIYLQMNSLKTEDTAVYYCRYVHYSASYGVDAWGQGTTVTVSSASTKGPSVFPLAPSSKSTSGGTAALGCLVKDYFPEPVTVSWNSGALTSGVHTFPAVLQSSGLYSLSSVVTVPSSSLGTQTYICNVNHKPSNTKVDKKVEPKSCDKTHTCPPCPAPEAAGGPSVFLFPPKPKDTLMISRTPEVTCVVVDVSHEDPEVKFNWYVDGVEVHNAKTKPREEQYASTYRVVSVLTVLHQDWLNGKEYKCKVSNKALPAPIEKTISKAKGQPREPQVYTLPPSRCELTKNQVSLSCAVKGFYPSDIAVEWESNGQPENNYKTTPPVLDSDGSFFLVSKLTVDKSRWQQGNVFSCSVMHEALHNHYTQKSLSLSPDYKDDDDK EPKSSDKTHTCPPCPAPELLGGPSVFLFPPKPKDTLMISRTPEVTCVVVDVSHEDPEVKFNWYVDGVEVHNAKTKPREEQYNSTYRVVSVLTVLHQDWLNGKEYKCKVSNKALPAPIEKTISKAKGQPREPQVCTLPPSRDELTKNQVSLWCLVKGFYPSDIAVEWESNGQPENNYKTTPPVLDSDGSFFLYSKLTVDKSRWQQGNVFSCSVMHEALHNRYTQKSLSLSP light: DIVMTQSPLSLPVTPGEPASISCRSSQSPVHSNRNTYIHWYQQKPGQAPRLLIYKVSNRFSGVPDRFSGSGSGTDFTLKISRVEAEDVGVYYCGQGTQVPYTFGQGTKLEIKRTVAAPSVFIFPPSDEQLKSGTASVVCLLNNFYPREAKVQWKVDNALQSGNSQESVTEQDSKDSTYSLSSTLTLSKADYEKHKVYACEVTHQGLSSPVTKSFNRGEC | 32.4 nM

Now those with a lower Kd, led by results:

Kd | Binder
28.7 nM | TR01H040-E22Hh/none-Hi-Kn010G3/L0200-k0 (antibody, human IgG1, kappa, L234A L235A, N297A, single-arm) heavy: QVQLVESGGGLVQPGRSLRLSCAASGFTFSNAWMHWVRQAPGKGLEWVAQIKDKSQNYATYYAESVKGRFTISRADSKNSIYLQMNSLKTEDTAVYYCRYVHYSASYGVDAWGQGTTVTVSSASTKGPSVFPLAPSSKSTSGGTAALGCLVKDYFPEPVTVSWNSGALTSGVHTFPAVLQSSGLYSLSSVVTVPSSSLGTQTYICNVNHKPSNTKVDKKVEPKSCDKTHTCPPCPAPEAAGGPSVFLFPPKPKDTLMISRTPEVTCVVVDVSHEDPEVKFNWYVDGVEVHNAKTKPREEQYASTYRVVSVLTVLHQDWLNGKEYKCKVSNKALPAPIEKTISKAKGQPREPQVYTLPPSRCELTKNQVSLSCAVKGFYPSDIAVEWESNGQPENNYKTTPPVLDSDGSFFLVSKLTVDKSRWQQGNVFSCSVMHEALHNHYTQKSLSLSPDYKDDDDK EPKSSDKTHTCPPCPAPELLGGPSVFLFPPKPKDTLMISRTPEVTCVVVDVSHEDPEVKFNWYVDGVEVHNAKTKPREEQYNSTYRVVSVLTVLHQDWLNGKEYKCKVSNKALPAPIEKTISKAKGQPREPQVCTLPPSRDELTKNQVSLWCLVKGFYPSDIAVEWESNGQPENNYKTTPPVLDSDGSFFLYSKLTVDKSRWQQGNVFSCSVMHEALHNRYTQKSLSLSP light: DIVMTQSPLSLPVTPGEPASISCRPSQSPVHSNRNTYLHWYQQKPGQAPRLLIYKVSNRFSGVPDRFSGSGSGTDFTLKISRVEAEDVGVYYCGQGTQVPYTFGQGTKLEIKRTVAAPSVFIFPPSDEQLKSGTASVVCLLNNFYPREAKVQWKVDNALQSGNSQESVTEQDSKDSTYSLSSTLTLSKADYEKHKVYACEVTHQGLSSPVTKSFNRGEC
28.1 nM | TR01H040-E22Hh/none-Hi-Kn010G3/L0201-k0 (antibody, human IgG1, kappa, L234A L235A, N297A, single-arm) heavy: QVQLVESGGGLVQPGRSLRLSCAASGFTFSNAWMHWVRQAPGKGLEWVAQIKDKSQNYATYYAESVKGRFTISRADSKNSIYLQMNSLKTEDTAVYYCRYVHYSASYGVDAWGQGTTVTVSSASTKGPSVFPLAPSSKSTSGGTAALGCLVKDYFPEPVTVSWNSGALTSGVHTFPAVLQSSGLYSLSSVVTVPSSSLGTQTYICNVNHKPSNTKVDKKVEPKSCDKTHTCPPCPAPEAAGGPSVFLFPPKPKDTLMISRTPEVTCVVVDVSHEDPEVKFNWYVDGVEVHNAKTKPREEQYASTYRVVSVLTVLHQDWLNGKEYKCKVSNKALPAPIEKTISKAKGQPREPQVYTLPPSRCELTKNQVSLSCAVKGFYPSDIAVEWESNGQPENNYKTTPPVLDSDGSFFLVSKLTVDKSRWQQGNVFSCSVMHEALHNHYTQKSLSLSPDYKDDDDK EPKSSDKTHTCPPCPAPELLGGPSVFLFPPKPKDTLMISRTPEVTCVVVDVSHEDPEVKFNWYVDGVEVHNAKTKPREEQYNSTYRVVSVLTVLHQDWLNGKEYKCKVSNKALPAPIEKTISKAKGQPREPQVCTLPPSRDELTKNQVSLWCLVKGFYPSDIAVEWESNGQPENNYKTTPPVLDSDGSFFLYSKLTVDKSRWQQGNVFSCSVMHEALHNRYTQKSLSLSP light: DIVMTQSPLSLPVTPGEPASISCRSSQPPVHSNRNTYLHWYQQKPGQAPRLLIYKVSNRFSGVPDRFSGSGSGTDFTLKISRVEAEDVGVYYCGQGTQVPYTFGQGTKLEIKRTVAAPSVFIFPPSDEQLKSGTASVVCLLNNFYPREAKVQWKVDNALQSGNSQESVTEQDSKDSTYSLSSTLTLSKADYEKHKVYACEVTHQGLSSPVTKSFNRGEC
26.1 nM | TR01H039-E22Hh/none-Hi-Kn010G3/L0000-k0 (antibody, human IgG1, kappa, L234A L235A, N297A, single-arm) heavy: QVQLVESGGGLVQPGRSLRLSCAASGFTFSNAWMHWVRQAPGKGLEWVAQIKDKSQNYATYYAESVKGRFTISRADSKNSIYLQMNSLKTEDTAVYYCRYVHYSASYGVDIWGQGTTVTVSSASTKGPSVFPLAPSSKSTSGGTAALGCLVKDYFPEPVTVSWNSGALTSGVHTFPAVLQSSGLYSLSSVVTVPSSSLGTQTYICNVNHKPSNTKVDKKVEPKSCDKTHTCPPCPAPEAAGGPSVFLFPPKPKDTLMISRTPEVTCVVVDVSHEDPEVKFNWYVDGVEVHNAKTKPREEQYASTYRVVSVLTVLHQDWLNGKEYKCKVSNKALPAPIEKTISKAKGQPREPQVYTLPPSRCELTKNQVSLSCAVKGFYPSDIAVEWESNGQPENNYKTTPPVLDSDGSFFLVSKLTVDKSRWQQGNVFSCSVMHEALHNHYTQKSLSLSPDYKDDDDK EPKSSDKTHTCPPCPAPELLGGPSVFLFPPKPKDTLMISRTPEVTCVVVDVSHEDPEVKFNWYVDGVEVHNAKTKPREEQYNSTYRVVSVLTVLHQDWLNGKEYKCKVSNKALPAPIEKTISKAKGQPREPQVCTLPPSRDELTKNQVSLWCLVKGFYPSDIAVEWESNGQPENNYKTTPPVLDSDGSFFLYSKLTVDKSRWQQGNVFSCSVMHEALHNRYTQKSLSLSP light: DIVMTQSPLSLPVTPGEPASISCRSSQSLVHSNRNTYLHWYQQKPGQAPRLLIYKVSNRFSGVPDRFSGSGSGTDFTLKISRVEAEDVGVYYCGQGTQVPYTFGQGTKLEIKRTVAAPSVFIFPPSDEQLKSGTASVVCLLNNFYPREAKVQWKVDNALQSGNSQESVTEQDSKDSTYSLSSTLTLSKADYEKHKVYACEVTHQGLSSPVTKSFNRGEC
